Paper PMC3967969 (Molecular Biology of the Cell, 2014)

Target: T1, MEI-2, wild type (from MBP-TEV-MEI-2) (C. elegans, UniProt O44740 1-280)
T1 sequence (looked up): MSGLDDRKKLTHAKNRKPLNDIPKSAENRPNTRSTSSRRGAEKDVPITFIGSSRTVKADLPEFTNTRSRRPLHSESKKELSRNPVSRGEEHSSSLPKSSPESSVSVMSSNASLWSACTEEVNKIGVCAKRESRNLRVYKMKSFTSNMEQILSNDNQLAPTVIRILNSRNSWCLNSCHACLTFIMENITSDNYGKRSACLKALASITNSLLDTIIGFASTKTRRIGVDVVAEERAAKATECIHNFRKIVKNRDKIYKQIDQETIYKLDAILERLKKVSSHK
Test: pull-down

stoichiometry N: 1 MEI-1:MEI-2
B1: MEI-1 (short isoform), untagged, wild type (enzyme, C. elegans, UniProt P34808 1-472, looked up)
chain: MNGDVQSVIRGYLERAQVAKTMSDAGRWNEAGDLLRQLMTDVKSCKISASNRDEHDARNTFLRALEANLKLVQQNVRDEDDLHEAMTRQSGSPEPPADPDVWSKPSPPLPSSSKFGATKKGVGAAGPRPREISKSTSSMSTNPADVKPANPTQGILPQNSAGDSFDASAYDAYIVQAVRGTMATNTENTMSLDDIIGMHDVKQVLHEAVTLPLLVPEFFQGLRSPWKAMVLAGPPGTGKTLIARAIASESSSTFFTVSSTDLSSKWRGDSEKIVRLLFELARFYAPSIIFIDEIDTLGGQRGNSGEHEASRRVKSEFLVQMDGSQNKFDSRRVFVLAATNIPWELDEALRRRFEKRIFIPLPDIDARKKLIEKSMEGTPKSDEINYDDLAARTEGFSGADVVSLCRTAAINVLRRYDTKSLRGGELTAAMESLKAELVRNIDFEAALQAVSPSAGPDTMLKCKEWCDSFGAM
